From patent publication US20100086555A1
Like-named read-outs stand apart in the source and are kept apart here.

Columns and labels:
[1] = target: recombinant trimeric H5 HA (A/VN/1203/04) (influenza A virus A/VN/1203/04 (H5N1)); assay: competition ELISA on recombinant trimeric H5 HA; competitor C179
[2] = target: H5 HA A/VN/1203/04 (on pseudotypes and on infectious virus) (influenza A virus A/VN/1203/04 (H5N1)); assay: cell-based or functional assay
[3] = target: H1 HA A/NC/20/99 (on infectious virus) (influenza A virus A/NC/20/99 (H1N1)); assay: cell-based or functional assay
[4] = target: H9 HA A/HK/1073/99 (on infectious virus) (influenza A virus A/HK/1073/99 (H9N2)); assay: cell-based or functional assay
[5] = target: H3 HA A/WY/3/03 (on infectious virus) (influenza A virus A/WY/3/03 (H3N2)); assay: cell-based or functional assay
[6] = target: H5 HA A/INDO/5/05 (on pseudotypes and on infectious virus) (influenza A virus A/INDO/5/05 (H5N1)); assay: cell-based or functional assay
[7] = target: H5 HA A/WS/Mong/244/05 (on pseudotypes) (influenza A virus A/WS/Mong/244/05 (H5N1)); assay: cell-based or functional assay
[8] = target: H9 HA A/ck/HK/G9/97 (on infectious virus) (influenza A virus A/ck/HK/G9/97 (H9N2)); assay: cell-based or functional assay
[9] = target: H5 HA A/Anhui/1/5 (on pseudotypes) (influenza A virus A/Anhui/1/5 (H5N1)); assay: cell-based or functional assay
[10] = target: H5 HA A/HK/213/03 (on pseudotypes) (influenza A virus A/HK/213/03 (H5N1)); assay: cell-based or functional assay
[11] = target: H1 HA A/SI/3/06 (on infectious virus) (influenza A virus A/SI/3/06 (H1N1)); assay: cell-based or functional assay
[12] = target: H5 HA A/VN/1194/04 (on pseudotypes) (influenza A virus A/VN/1194/04 (H5N1)); assay: cell-based or functional assay
[13] = target: H5 HA A/HK/491/97 (on pseudotypes) (influenza A virus A/HK/491/97 (H5N1)); assay: cell-based or functional assay
[14] = target: recombinant trimeric H5 HA (A/VN/1203/04) (influenza A virus A/VN/1203/04 (H5N1)); assay: competition ELISA on recombinant trimeric H5 HA; competitor FLD21
[15] = target: H9 HA A/HK/1073/99 (ELISA antigen) (influenza A virus A/HK/1073/99 (H9)); assay: ELISA
[16] = target: H5 HA A/INDO/5/05 (ELISA antigen) (influenza A virus A/INDO/5/05 (H5N1)); assay: ELISA
[17] = target: H1 HA A/Texas/3/99 (ELISA antigen) (influenza A virus A/Texas/3/99 (H1)); assay: ELISA
[18] = target: H1 HA A/SI/3/06 (ELISA antigen) (influenza A virus A/SI/3/06 (H1)); assay: ELISA
[19] = target: recombinant trimeric H5 HA (A/VN/1203/04) (influenza A virus A/VN/1203/04 (H5N1)); assay: ELISA
[20] = target: H1 HA A/PR/8/34 (on infectious virus) (influenza A virus A/PR/8/34 (H1N1)) (UniProt P03452); assay: cell-based or functional assay
[21] = target: H2 HA A/JP/305/57 (on infectious virus) (influenza A virus A/JP/305/57 (H2N2)) (UniProt P03451); assay: cell-based or functional assay
[22] = target: H1 HA A/CA/07/09 (on infectious virus) (influenza A virus A/CA/07/09 (H1N1)); assay: cell-based or functional assay
[23] = target: H6 HA A/teal/HK/WN312/97 (on infectious virus) (influenza A virus A/teal/HK/W312/97 (H6N1)); assay: cell-based or functional assay
[24] = target: H1 HA A/swine/Iowa/31 (on infectious virus) (influenza A virus A/swine/Iowa/31 (H1N1)); assay: cell-based or functional assay
[25] = target: H1 HA A/NJ/76 (on infectious virus) (influenza A virus A/NJ/76 (H1N1)); assay: cell-based or functional assay
[26] = target: H5 HA A/VN/1203/04 (on pseudotypes and on infectious virus) (influenza A virus A/VN/1203/04 (H5N1)); assay: cell-based or functional assay; remark: listed apart in the source
[27] = target: H1 HA A/PR/8/34 (on infectious virus) (influenza A virus A/PR/8/34 (H1N1)) (UniProt P03452); assay: cell-based or functional assay; remark: listed apart in the source
[28] = target: H1 HA A/CA/07/09 (on infectious virus) (influenza A virus A/CA/07/09 (H1N1)); assay: cell-based or functional assay; remark: listed apart in the source
[29] = target: H1 HA A/swine/Iowa/31 (on infectious virus) (influenza A virus A/swine/Iowa/31 (H1N1)); assay: cell-based or functional assay; remark: listed apart in the source
[30] = target: H1 HA A/NJ/76 (on infectious virus) (influenza A virus A/NJ/76 (H1N1)); assay: cell-based or functional assay; remark: listed apart in the source

Row | Binder | Competition (%) [1] [%] | Neutralization of HA-pseudotypes (IC90) [2] [mg/L] | Neutralization H1N1 IC90 [3] [mg/L] | Neutralization of infectious viruses (IC50) [3] [mg/L] | Neutralization of infectious viruses (IC50) [4] [mg/L] | Neutralization of HA-pseudotypes (IC90) [6] [mg/L] | Neutralization of HA-pseudotypes (IC90) [7] [mg/L] | Neutralization of infectious viruses (IC50) [8] [mg/L] | Neutralization of HA-pseudotypes (IC90) [9] [mg/L] | Neutralization of HA-pseudotypes (IC90) [10] [mg/L] | Neutralization H1N1 IC90 [11] [mg/L] | Neutralization of infectious viruses (IC50) [11] [mg/L] | Neutralization H5pp IC90 [12] [mg/L] | Neutralization of HA-pseudotypes (IC90) [12] [mg/L] | Neutralization of HA-pseudotypes (IC90) [13] [mg/L] | Competition (%) [14] [%] | K50 [15] [µg/mL] | K50 [17] [µg/mL] | K50 [18] [µg/mL] | K50 [19] [µg/mL] | also measured
1 | FE53 (antibody, V domains shown) VH: QVQLVQSGAEVKKPGSSVKVSCKASGVTSSNYPITWVRQAPGQGLEWMGGVLPLFGVTNYAQKFQGRVTISADKSTNTAYMELSSLRSEDTAVYYCARGKRPGYCSGGVCSSDYWGQGTLVTVSS VL: DIQMTQSPSSLSASVGDRVSITCQASQDISRYLNWYQQKPGEAPKLLIYDASNLETGVPSRFSGSGSGTDFTFTISSLQPEDIATYFCQQYGYLPLTFGPGTKVDSK | 100 | 0.098 | 6.2 | 37 | 8 | 0.491 | 0.077 | 2 | 0.065 | 0.066 | 6.2 | 6 | 0.008 | 0.008 | 0.046 | < 20 | 0.014 | 0.015 | 0.375 | 0.015 | Neutralization H5N1 IC50 [2]: > 50 mg/L; Neutralization H3N2 IC50 [5]: > 50 mg/L; Neutralization H9N2 IC50 [8]: 0.1 mg/L; K50 [16]: 0.084 µg/mL
2 | FB139 (antibody, V domains shown) VH: QVQLVQSGAEVKKAGSSVKVSCQSSGVTFSMYAVSWVRQAPGQGLEWMGGIIPLFGTTTYAQKFEGRLTITADTSTNMAYLELRSLRSEDTAVYFCARAGTTVTRFNWFDPWGQGTLVTVSS VL: EVVLTQSPGTLSLSPGQRATLSCRASQSVSSSYLAWYQQKPGQAPRLLIYDASNRATGIPDRFSGSGSGTDFTLTISRLEPEDFAVYYCQQYGSSPYTFGQGTKLEIK | 100 | 0.034 |  | 36 | 20 | 0.106 | 0.035 | 6 | 0.022 | 0.019 |  | 4 |  | 0.04 | 0.019 | < 20 | 0.066 | 0.06 | 1.38 | 0.033 | Neutralization of infectious viruses (IC50) [2]: 36 mg/L; Neutralization of infectious viruses (IC50) [20]: 5 mg/L; Neutralization of infectious viruses (IC50) [6]: 36 mg/L; Neutralization of infectious viruses (IC50) [21]: 50 mg/L; K50 [16]: 0.163 µg/mL
3 | FE43 (antibody, V domains shown) VH: QVHLVQSGAEVKKPGSSVRLSCSASGGPFSGFAISWLRQAPGQGLEWLGGISAVFGTATYAQKFQGRVTITADQFTSTSHMDLSRLTYDDTAVYYCARSGGYLPQNNWIDPWGQGTLVIVSS VL: DIVMTQTPLSLSVTPGQPASISCKSSQSLLHSDGKTYLYWYLQKPGQSPQLLIYEVSNRFSGVPDRFSGSGSGTDFTLKISRVEAEDVGVYYCMQNILLPLTFGGGTKVEIK | 100 | 0.146 | 6.2 | 40 | 50 | 0.39 | 0.186 | 4 | 0.137 | 0.07 | 6.2 | 9 | 0.03 | 0.061 | 0.053 | < 20 | 0.307 | 0.013 | 0.206 | 0.029 | Hemagglutination inhibition titer [2]: < 5; Neutralization H5N1 IC50 [2]: > 50 mg/L; Hemagglutination inhibition titer [20]: < 5; Neutralization of infectious viruses (IC50) [20]: 4 mg/L; Hemagglutination inhibition titer [22]: < 5; Neutralization H3N2 IC50 [5]: > 50 mg/L; Neutralization of infectious viruses (IC50) [23]: 20 mg/L; Hemagglutination inhibition titer [24]: 20; Neutralization of infectious viruses (IC50) [6]: 25 mg/L; Neutralization H9N2 IC50 [8]: 0.02 mg/L; Hemagglutination inhibition titer [25]: < 5; K50 [16]: 4.54 µg/mL; Neutralization of infectious viruses (IC50) [26]: > 50 mg/L; Neutralization of infectious viruses (IC50) [27]: 1.5 mg/L; Neutralization of infectious viruses (IC50) [28]: 4 mg/L; Neutralization of infectious viruses (IC50) [29]: 3 mg/L; Neutralization of infectious viruses (IC50) [30]: 9 mg/L
4 | FC6 (antibody, V domains shown) VH: QGQLVQSGAEVKKSGSSVKVSCKTSGGTFNSHAISWVRQAPGQGLEWIGGIIPMFGTTNYAQKLKGRIAITADQLPTTAYLELSSLRSEDTAVYYCARGQRYYYDRDGMDVWGQGTMVTVSS VL: EIVMTQTPLSLSVTPGQPASISCRSSQSLLHSDGKTYLYWYLQKPGQPPQLLISEVFNRFSGVPDRFSGSGSGTDFTLKISRVEAEDVGVYYCMQSLQLPLTFGGGTKVEIK | 100 | 0.096 | 12.5 | 40 | 36 | 0.242 | 0.073 | 9 | 0.112 | 0.077 | 12.5 | 18 | 0.04 | 0.061 | 0.081 | < 20 | 0.15 | 0.066 | 1.47 | 0.157 | Neutralization of infectious viruses (IC50) [20]: 16 mg/L; Neutralization of infectious viruses (IC50) [23]: 63 mg/L; Neutralization of infectious viruses (IC50) [6]: 31 mg/L
